According to PMC5264503, “Structural and biophysical analysis of nuclease protein antibiotics” (Biochemical Journal, 2016):

Columns and labels:
[1] = target: wild-type ColE9 (colicin E9) (E. coli) (UniProt P09883); test: stopped-flow fluorescence; wild-type ColE9 under the same conditions (PBS pH 7.4, 25 °C); data not shown
[2] = target: pyocin S2 (P. aeruginosa, UniProt Q06584 1-689); test: SAXS; conditions: both partners purified
pyocin S2, sequence (Q06584 whole entry): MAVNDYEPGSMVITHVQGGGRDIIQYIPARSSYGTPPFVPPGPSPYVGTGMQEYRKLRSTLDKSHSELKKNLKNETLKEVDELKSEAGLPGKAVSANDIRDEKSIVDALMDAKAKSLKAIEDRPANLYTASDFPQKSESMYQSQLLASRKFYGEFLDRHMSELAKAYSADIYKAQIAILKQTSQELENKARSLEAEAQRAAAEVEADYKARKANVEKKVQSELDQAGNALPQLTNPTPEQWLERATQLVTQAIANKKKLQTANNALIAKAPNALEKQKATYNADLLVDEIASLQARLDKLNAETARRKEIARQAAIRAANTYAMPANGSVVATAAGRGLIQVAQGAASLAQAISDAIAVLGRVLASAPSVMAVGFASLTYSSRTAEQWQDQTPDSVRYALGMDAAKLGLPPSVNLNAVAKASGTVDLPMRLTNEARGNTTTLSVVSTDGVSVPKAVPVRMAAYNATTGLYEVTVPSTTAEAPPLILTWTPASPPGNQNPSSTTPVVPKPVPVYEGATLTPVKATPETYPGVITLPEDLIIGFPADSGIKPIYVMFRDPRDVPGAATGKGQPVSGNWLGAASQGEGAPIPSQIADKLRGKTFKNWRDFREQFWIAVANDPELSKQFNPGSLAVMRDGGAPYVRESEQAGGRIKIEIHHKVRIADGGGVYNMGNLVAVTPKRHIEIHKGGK

wild-type ColE9 (colicin E9) (E. coli), sequence (P09883 whole entry): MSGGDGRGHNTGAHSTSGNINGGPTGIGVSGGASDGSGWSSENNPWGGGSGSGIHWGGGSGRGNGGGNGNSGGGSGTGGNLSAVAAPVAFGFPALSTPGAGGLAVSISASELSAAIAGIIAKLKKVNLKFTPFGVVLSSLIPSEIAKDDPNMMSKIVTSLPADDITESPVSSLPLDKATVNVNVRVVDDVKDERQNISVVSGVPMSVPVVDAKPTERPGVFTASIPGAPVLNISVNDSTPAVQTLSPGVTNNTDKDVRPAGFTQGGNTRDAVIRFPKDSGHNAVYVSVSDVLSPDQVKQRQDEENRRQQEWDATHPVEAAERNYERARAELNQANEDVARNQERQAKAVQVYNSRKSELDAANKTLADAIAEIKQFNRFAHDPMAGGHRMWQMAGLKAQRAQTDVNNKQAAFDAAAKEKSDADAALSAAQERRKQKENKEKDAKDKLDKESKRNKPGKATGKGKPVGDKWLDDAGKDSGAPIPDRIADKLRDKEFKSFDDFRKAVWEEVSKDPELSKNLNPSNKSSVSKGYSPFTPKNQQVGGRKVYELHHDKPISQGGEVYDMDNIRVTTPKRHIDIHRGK

Question: What does the source list for “Im9 (immunity protein 9) (from UniProt P13479 1-86) (natural protein)”?
Answer: k1 (bimolecular collision) [1]: 1.28e+08 M⁻¹ s⁻¹; k2 app (conformational change) [1]: 2.76 s⁻¹

B1: ImS2 (pyocin S2 immunity protein) (natural protein)
chain: MKSKISEYTEKEFLEFVKDIYTNNKKKFPTEESHIQAVLEFKKLTEHPSGSDLLYYPNENREDSPAGVVKEVKEWRASKGLPGFKAG
notes: not shown: His6, C-terminal, kept
Question: Does B1 bind [2]?
Answer: Result: binds
